Laboratory results published in paper PMC9500956, “In Vitro Characterization of the Physical Interactions between the Long Noncoding RNA TERRA and the Telomeric Proteins TRF1 and TRF2”.

Key:
GST-AP2EAB (human) = GST-AP2EAB (human) (UniProt P54274+Q15554); assay: EMSA; conditions: RNA EMSA: 50 mM HEPES pH 8, 1 mM DTT, 100 mM NaCl, 0.01% BSA, 2% glycerol, 50 ng/uL E. coli tRNA, 0.25 nM RNA, 20 min on ice then 10 min 25 C; dsDNA EMSA: same …
GST-A1-50B (human) = GST-A1-50B (human) (UniProt P54274+Q15554); assay: EMSA; conditions: RNA EMSA: 50 mM HEPES pH 8, 1 mM DTT, 100 mM NaCl, 0.01% BSA, 2% glycerol, 50 ng/uL E. coli tRNA, 0.25 nM RNA, 20 min on ice then 10 min 25 C; dsDNA EMSA: same …
GST-TRF1ΔA = GST-TRF1ΔA (human, UniProt P54274 67-439, del1-66); assay: EMSA; E. coli tRNA; RNA EMSA: 50 mM HEPES pH 8, 1 mM DTT, 100 mM NaCl, 0.01% BSA, 2% glycerol, 50 ng/uL E. coli tRNA, 0.25 nM RNA, 20 min on ice then 10 min 25 C; dsDNA EMSA: same; conditions: protein: recombinant, tags: N-terminal GST, chain copies: 2, label: 5'-32P
GST-TRF2ΔB = GST-TRF2ΔB (human, UniProt Q15554 87-542, del43-86); assay: as above; conditions: protein: recombinant, tags: N-terminal GST, chain copies: 2, label: 5'-32P
GST-B R13-30A = target: T1, GST-B R13-30A (human, UniProt Q15554 43-86, R55A;R59A;R60A;R63A;R67A;R69A;R70A;R72A); assay: as above; conditions: protein: recombinant; tags: N-terminal GST; label: 5'-32P; G4-forming
T1 chain: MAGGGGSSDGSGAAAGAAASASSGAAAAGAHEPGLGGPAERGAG

GST-TRF1ΔA, sequence (P54274 67-439, stated change not applied): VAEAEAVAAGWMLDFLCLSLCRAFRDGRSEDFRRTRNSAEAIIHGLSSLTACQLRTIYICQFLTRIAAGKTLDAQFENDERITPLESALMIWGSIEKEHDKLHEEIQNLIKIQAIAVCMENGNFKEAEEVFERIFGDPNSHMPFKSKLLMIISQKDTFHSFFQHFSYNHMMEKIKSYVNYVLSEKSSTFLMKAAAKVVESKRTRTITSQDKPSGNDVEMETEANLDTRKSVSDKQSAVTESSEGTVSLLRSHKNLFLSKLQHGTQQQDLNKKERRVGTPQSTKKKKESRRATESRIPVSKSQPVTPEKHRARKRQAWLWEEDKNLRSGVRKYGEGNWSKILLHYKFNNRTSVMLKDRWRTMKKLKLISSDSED
GST-TRF2ΔB, sequence (Q15554 87-542, stated change not applied): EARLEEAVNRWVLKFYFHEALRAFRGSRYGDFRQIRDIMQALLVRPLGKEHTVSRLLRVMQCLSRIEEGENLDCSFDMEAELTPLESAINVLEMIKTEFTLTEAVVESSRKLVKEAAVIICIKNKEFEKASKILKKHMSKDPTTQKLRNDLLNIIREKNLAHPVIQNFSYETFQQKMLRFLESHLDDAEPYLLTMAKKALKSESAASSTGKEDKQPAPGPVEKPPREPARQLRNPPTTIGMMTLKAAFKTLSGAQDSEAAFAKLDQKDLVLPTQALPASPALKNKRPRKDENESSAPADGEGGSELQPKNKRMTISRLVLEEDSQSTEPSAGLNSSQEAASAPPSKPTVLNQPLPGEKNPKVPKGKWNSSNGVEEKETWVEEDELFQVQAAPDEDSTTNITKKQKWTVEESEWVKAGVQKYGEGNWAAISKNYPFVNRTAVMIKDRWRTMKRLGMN
GST-AP2EAB (human), sequence (P54274 whole entry, chain 1 of 2): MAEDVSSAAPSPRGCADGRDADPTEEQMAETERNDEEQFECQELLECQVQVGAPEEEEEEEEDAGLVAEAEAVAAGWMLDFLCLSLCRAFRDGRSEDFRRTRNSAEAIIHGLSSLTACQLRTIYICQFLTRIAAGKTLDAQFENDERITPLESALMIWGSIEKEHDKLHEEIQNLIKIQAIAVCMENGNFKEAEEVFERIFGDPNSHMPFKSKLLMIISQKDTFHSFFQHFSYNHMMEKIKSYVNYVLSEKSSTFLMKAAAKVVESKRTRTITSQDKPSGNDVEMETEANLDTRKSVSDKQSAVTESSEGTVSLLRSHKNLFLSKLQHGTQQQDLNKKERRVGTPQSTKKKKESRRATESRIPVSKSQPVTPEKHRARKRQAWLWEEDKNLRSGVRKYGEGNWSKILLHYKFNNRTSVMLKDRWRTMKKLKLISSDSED
GST-AP2EAB (human), sequence (Q15554 whole entry, chain 2 of 2): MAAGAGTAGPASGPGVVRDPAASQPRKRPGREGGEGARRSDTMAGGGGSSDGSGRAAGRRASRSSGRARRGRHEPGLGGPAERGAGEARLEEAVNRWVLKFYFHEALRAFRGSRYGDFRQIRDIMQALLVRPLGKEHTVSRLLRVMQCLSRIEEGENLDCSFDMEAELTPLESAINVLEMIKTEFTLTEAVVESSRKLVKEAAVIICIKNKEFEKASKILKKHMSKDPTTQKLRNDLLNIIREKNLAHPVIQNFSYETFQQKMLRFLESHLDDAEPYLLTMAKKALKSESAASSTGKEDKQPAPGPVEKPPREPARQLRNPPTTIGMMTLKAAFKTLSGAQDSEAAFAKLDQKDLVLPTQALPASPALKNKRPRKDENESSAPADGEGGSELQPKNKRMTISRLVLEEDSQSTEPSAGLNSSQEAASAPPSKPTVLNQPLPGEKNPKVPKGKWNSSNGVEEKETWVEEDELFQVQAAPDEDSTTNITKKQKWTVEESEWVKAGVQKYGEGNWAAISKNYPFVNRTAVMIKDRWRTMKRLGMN
GST-A1-50B (human), sequence (P54274 whole entry, chain 1 of 2): as the sequence (P54274 whole entry, chain 1 of 2) above
GST-A1-50B (human), sequence (Q15554 whole entry, chain 2 of 2): as the sequence (Q15554 whole entry, chain 2 of 2) above

For “UUAGGGUUAGGGUUAGGGUUAGGGUUAGGGUUAGGGUUAGGGUUAGGGUUAGGGUUAGGGUUAGGGUUAGGG [TERRA (UUAGGG)12]”, the binding signal (% binding regained at 320 nM) (GST-AP2EAB (human)) was 80 and the binding signal (% of B domain alone) (GST-A1-50B (human)) was 60.

AUAGGGAUAGGGAUAGGGAUAGGGAUAGGG (structured_RNA) [MUT3 (AUAGGG)5]: binds (GST-TRF1ΔA; G4-forming); binds (GST-TRF2ΔB; G4-forming).

AAAGGGAAAGGGAAAGGGAAAGGGAAAGGG (structured_RNA) [MUT4 (AAAGGG)5]: binds (GST-TRF1ΔA; G4-forming); binds (GST-TRF2ΔB; G4-forming).

UUAGGGUUAGGGUUAGGGUUAGGGUUAGGG (structured_RNA) [TERRA (UUAGGG)5]: no binding (GST-B R13-30A); binds (GST-TRF1ΔA; G4-forming); binds (GST-TRF2ΔB; G4-forming).

UUACGGUUACGGUUACGGUUACGGUUACGG (ssRNA) [MUT1 (UUACGG)5]: no binding (GST-TRF1ΔA; not G4-forming); no binding (GST-TRF2ΔB; not G4-forming).

UUACCGUUACCGUUACCGUUACCGUUACCG (ssRNA) [MUT2 (UUACCG)5]: no binding (GST-TRF1ΔA; not G4-forming); no binding (GST-TRF2ΔB; not G4-forming).
